Test results as given in PMC3891507 (2014).

Tests used:
Laminin 111 [1] = target: Laminin 111 (Mus musculus, UniProt P19137, LARGE-glycan (control myotubes), Ca2+); test: solid-phase binding assay
Laminin 111 [2] = target: Laminin 111 (Mus musculus, UniProt P19137, shortened LARGE-glycan (LargeKD myotubes), Ca2+); test: solid-phase binding assay

Kd (Laminin 111 [1]): 2.93 nM
Kd (Laminin 111 [2]): 4.75 nM
B1: alpha-dystroglycan (protein)
chain: HWPSEPSEAVRDWKNQLEASMHSVLSDFQEAVPTVVGIPDGTAVVGRSFRVSIPTDLIASSGEIIKVSAAGKEALPSWLHWDPHSHILEGLPLDTDKGVHYISVSAARLGANGSHVPQTSSVFSIEVYPEDHNEPQSVRAASSDPGEVVPSACAADEPVTVLTVILDADLTKMTPKQRIDLLNRMQSFSEVELHNMKLVPVVNNRLFDMSAFMAGPGNAKKVVENGALLSWKLGCSLNQNSVPDIRGVETPAREGAMSAQLGYPVVGWHIANKKPTLPKRLRRQIHATPTPVTAIGPPTTAIQEPPSRIVPTPTSPAIAPPTETMAPPVRDPVPGKPTVTIRTRGAIIQTPTLGPIQPTRVSEAGTTVPGQIRPTLTIPGYVEPTAVITPPTTTTKKPRVSTPKPATPSTDSSTTTTRRPTKKPRTPRPVPRVTTKAPITRLETASPPTRIRTTTSGVPRGGEPNQRPELKNHIDRVDAWVGTYFEVKIPSDTFYDNEDTTTDKLKLTLKLREQQLVGEKSWVQFNSNSQLMYGLPDSSHVGKHEYFMHATDKGGLSAVDAFEIHVHKRPQGDKAPARFKARLAGDPAPVVNDIHKKIALVKKLAFAFGDRNCSSITLQNITRG
